Experimental data reported in patent US8933202B2, “AXL antibodies” (U3 Pharma GmbH, priority 2007, dated 2015).

Tests used:
C-8161 melanoma cells = experiment: Soft agar colony formation assay, combination with cisplatin; assay type: cell-based, human
Experimental: Soft agar assays were conducted in order to investigate the ability of anti-Axl antibodies of the invention to inhibit anchorage-independent cell growth either alone or in combination with chemotherapeutic agents. The soft agar colony formation assay is a standard in vitro assay to test for transformed cells, as only transformed cells are able to grow in soft agar.
In brief, 750 C-8161 melanoma cells either remained untreated or were pre-incubated with the antagonistic rat anti-Axl antibody 11B7 at 15 μg/ml in IMDM medium (Gibco) for 30 min at 37° C. Subsequently, cells were combined with Difco noble agar solution resulting in 50 μl of top agar cell suspension at concentrations of Agar, FCS, and 11B7 of 0.35%, 0.2%, and 7.5 μg/ml, respectively. This cell suspension was plated on top of 50 μl of a 0.7% agarose bottom layer containing 20% FCS, and was finally covered with another 50 μl of a feeding layer solution that contains 0.2% FCS as well as cisplatin in according concentrations. In the whole of 150 μl per sample, the final concentrations of 11B7 and cisplatin were 2.5 μg/ml and 1.5 μM, 1.0 μM, 0.75 μM, 0.5 μM, or 0.25 μM, respectively. Colonies were allowed to form for 5 days and were then stained with 50 μl MTT (Sigma, 1 mg/ml in PBS) for 3 hours at 37° C. Using a Scanalyzer HTS camera system in conjunction with the HTS Bonit colony formation software (Lemnatec, Wuerselen), the effect of the antagonistic rat anti-Axl antibody 11B7 in the absence or presence of cisplatin were analyzed in triplicates.

AXL = biological target: T1, AXL (Homo sapiens, UniProt P30530); experiment: Axl phosphorylation ELISA, rat versus chimeric antibody; assay type: cell-based; parameters: endogenous in cells; host or cells: CaSki cervical cancer cells
T1 sequence (P30530 26-894): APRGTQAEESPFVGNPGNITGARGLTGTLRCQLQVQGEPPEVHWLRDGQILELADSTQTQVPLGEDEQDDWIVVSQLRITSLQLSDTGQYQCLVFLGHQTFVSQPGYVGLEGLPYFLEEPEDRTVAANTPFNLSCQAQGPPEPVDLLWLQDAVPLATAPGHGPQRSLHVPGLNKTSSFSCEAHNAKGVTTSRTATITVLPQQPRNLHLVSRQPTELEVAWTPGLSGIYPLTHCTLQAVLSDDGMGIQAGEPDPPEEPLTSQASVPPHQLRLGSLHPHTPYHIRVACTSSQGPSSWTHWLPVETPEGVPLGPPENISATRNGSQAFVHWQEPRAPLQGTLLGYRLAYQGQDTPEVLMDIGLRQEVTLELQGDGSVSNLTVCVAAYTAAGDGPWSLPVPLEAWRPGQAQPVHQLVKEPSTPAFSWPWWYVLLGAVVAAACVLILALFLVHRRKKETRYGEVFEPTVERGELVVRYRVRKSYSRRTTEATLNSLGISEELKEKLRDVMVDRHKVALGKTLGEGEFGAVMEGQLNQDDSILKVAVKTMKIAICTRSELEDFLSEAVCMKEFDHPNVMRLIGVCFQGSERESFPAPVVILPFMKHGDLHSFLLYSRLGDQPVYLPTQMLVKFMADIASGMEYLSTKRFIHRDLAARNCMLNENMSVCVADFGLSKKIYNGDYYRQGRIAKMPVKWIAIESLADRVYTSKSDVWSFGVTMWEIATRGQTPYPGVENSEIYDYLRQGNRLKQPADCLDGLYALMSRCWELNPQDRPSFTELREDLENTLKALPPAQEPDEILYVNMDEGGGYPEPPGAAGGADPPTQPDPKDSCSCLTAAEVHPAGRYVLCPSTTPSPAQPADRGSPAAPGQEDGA
Experimental: In order to investigate whether the rat anti-Axl antibodies of the invention and the corresponding chimeric anti-Axl antibodies of the invention were able to inhibit ligand Gas6-mediated Axl activation in vitro to similar extent, ELISA experiments on CaSki cervical cancer cells were performed. Gas6-mediated Axl activation was thereby detected by increased receptor tyrosine phosphorylation. In brief, on day 1, 3×10^4 cells per well were seeded in normal growth medium in flat-bottom 96 well plates. The next day, growth medium was replaced by serum-free medium to starve cells over night for 24 h. Also over night, black Maxi-Sorp 96 well plates (Nunc) were coated with mouse anti-phospho-tyrosine antibody 4G10 at 2 μg/ml PBS and 4° C. On day 3, the 4G10 antibody solution was removed and Maxi-Sorp wells were blocked with PBS, 0.5% BSA for at lest 4 h at room temperature. In parallel, cells were pre-incubated with 50 ng/ml, 100 ng/ml, 300 ng/ml, 750 ng/ml, 1 μg/ml, and 10 μg/ml of rat anti-Axl antibody 11B7 or chimeric anti-Axl antibody ch11B7 for 1 h at 37° C. and subsequently treated with or without 400 ng/ml Gas6 (R&D Systems) for 10 min at 37° C. […] Using a Victor plate reader (Perkin Elmer), the fluorescence of each well was collected at an excitation wavelength of 430 nm and an emission wavelength of 580 nm.

ligand-induced Axl activation in melanoma cell line C-8161 (AXL; same experimental settings, C-8161): Comparable effects
B1: 11B7: antagonistic rat anti-AXL monoclonal antibody, rat IgG1 (antibody, V domains shown)
VL: DIQMTQAPSSLPASLGDRVTITCRASQDIGNYLRWFQQKPGKSPRLMISGATNLAAGVPSRFSGSRSGSDYSLTISSLESEDMADYYCLQSKESPWTFGGGTKLELK
VH: EVQLQESGPGLVKPSQSLSLTCSVTGYSITSNYWGWIRKFPGDKMEWMGYITYSGSTSYNPSLKSRISITRDTSKNQFFLQLNSVTSEDTATYYCAITTFYYWGQGVMVTVSS
soft agar colony growth, combination with cisplatin (C-8161 melanoma cells; 2.5 μg/ml 11B7 + 0.25 to 1.5 μM cisplatin, 5 days): significantly potentiated inhibitory effect of cisplatin
inhibitory effect on soft agar colony growth, antibody alone (C-8161 melanoma cells; 2.5 μg/ml 11B7, 5 days, overall area of colonies): ~30%
ligand-induced Axl activation (relative Axl phosphorylation), concentration-dependent (AXL; 50 ng/ml to 10 μg/ml antibody, 400 ng/ml Gas6, CaSki cervical cancer cells): able to block ligand-induced activation of the receptor tyrosine kinase Axl to similar extent
